{"source": "paper PMC6333426", "target": "Tsx nucleoside transporter of E. coli, on target cells (E. coli) (UniProt P0A927)", "sequence (P0A927 23-294)": "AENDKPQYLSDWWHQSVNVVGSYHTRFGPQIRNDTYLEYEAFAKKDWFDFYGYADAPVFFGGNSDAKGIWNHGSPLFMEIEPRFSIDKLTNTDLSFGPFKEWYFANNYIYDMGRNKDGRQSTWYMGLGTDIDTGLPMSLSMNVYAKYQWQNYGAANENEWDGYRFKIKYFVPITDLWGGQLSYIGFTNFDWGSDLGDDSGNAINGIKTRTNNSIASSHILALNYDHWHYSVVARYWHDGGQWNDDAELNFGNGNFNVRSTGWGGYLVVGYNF", "experiment": "flow cytometry on cells"}
{"substance": "CdiA^STECO31 (CdiA from Escherichia coli STEC_O31), wild type, A0A1S4NYE3 33-3253", "values": [{"measurement": "percent of target cells bound", "value": 80, "unit": "%"}]}
